Source: publication PMC10699647, “Structural basis of G protein–Coupled receptor CMKLR1 activation and signaling induced by a chemerin-derived agonist” (PLOS Biology, 2023)

Tests used:
[1] = tested on: CMKLR1; conditions: cited from earlier work
Description: The apparent contradictory functional roles of CMKLR1 in inflammation may be associated with the spatiotemporal regulation of the inflammation processes in cells. It is possible that in the early stage of inflammation, the CMKLR1 signaling is mainly pro-inflammatory by promoting chemotaxis and activation of DCs and macrophages, whereas at the late stage of inflammation, CMKLR1 activation can induce pro-resolving pathways to dampen inflammation. Another possibility for the differing effects of CMKLR1 signaling on inflammation is that different chemerin isoforms may activate CMKLR1 to induce dis ... || The potential roles of CMKLR1 signaling in inflammation may provide promising new opportunities for developing anti-inflammatory drugs. […] Nevertheless, the only commercially a ...

[2] = tested on: primary human macrophages; assay: Macrophage differentiation assay, surface markers by flow cytometry (MFI fold-change); conditions: 72 hours, 10 ng/mL (each), vs M0, n = 4 donors
Description: Monocytes were enriched from human PBMC by CD14 beads positive selection (Miltenyi Biotec) and cultured in IMDM supplanted with 10% human AB serum (Omega Scientific, Cat# HS-20) for 7 days for them to differentiate to macrophages.
Differentiated macrophages were then replated to low-bind plate at 0.15 million cells per 24-well plate, in 500 μl medium overnight before stimulated with various condition. Human macrophage medium was used as M0 reference culture condition, while 10 ng/ml IFNg plus 10 ng/ml LPS supplement were used as M1 reference, and 10 ng/ml IL-10 supplement used as M2 reference. […] Data were acquired on Cytek Aurora flowcytometry, analysis on Flowjo. MFI quantifications were normalized to M0 condition and statistically analyzed by 2-way ANOVA, with Dunnett’s multiple comparisons test; all groups were pair analyzed with M0 group as reference.

## C[N+](C)(C)CCC(=O)c1cccc2ccccc12.[I-] [α-NETA]
[1]; antagonist, ref [30]
  potency against CMKLR1: low micromolar potency

## chemerin15: synthetic peptide corresponding to the 141–155 amino acid segment of chemerin (AGEDPHSFYFPGQFA; UniProt Q99969 141-155, looked up, fragment)
[1]; CMKLR1, ref [9]
  agonism and anti-inflammatory effects: stable agonists of CMKLR1 that induce anti-inflammatory effects

B1: IL-10: 10 ng/ml IL-10 supplement used as M2 reference (protein, UniProt P22301 19-178, looked up)
Interleukin-10: SPGQGTQSENSCTHFPGNLPNMLRDLRDAFSRVKTFFQMKDQLDNLLLKESLLEDFKGYLGCQALSEMIQFYLEEVMPQAENQDPDIKAHVNSLGENLKTLRLRLRRCHRFLPCENKSKAVEQVKNAFNKLQEKGIYKAMSEFDIFINYIEAYMTMKIRN
[2]
  CD86 expression in words: down-regulation
  CD163 expression in words: up-regulation
  CD206 expression in words: up-regulation
